US20210253688A1 (UCB, published 2021)
Values belong to the binder of their own block, whether it stands above or below them.

B1: human Gremlin-1 (full length; recombinant human Gremlin 1) (ligand)
chain: KKKGSQGAIPPPDKAQHNDSEQTQSPQQPGSRNRGRGQGRGTAMPGEEVLESSQEALHVTERKYLKRDWCKTQPLKQTIHEEGCNSRTIINRFCYGQCNSFYIPRHIRKEEGSFQSCSFCKPKKFTTMMVTLNCPELQPPTKKKRVTRVKQCRCISIDLD

Tests used:
BMP4/7 heterodimer = target: T1, BMP4/7 heterodimer (human, UniProt P12644 293-408; P18075 293-431); assay: cell-based or functional assay
T1 sequence (looked up) 1: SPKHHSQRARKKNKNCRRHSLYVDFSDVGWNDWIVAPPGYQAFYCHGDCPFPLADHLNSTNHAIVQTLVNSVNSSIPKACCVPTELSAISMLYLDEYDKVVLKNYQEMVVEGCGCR
T1 sequence (looked up) 2: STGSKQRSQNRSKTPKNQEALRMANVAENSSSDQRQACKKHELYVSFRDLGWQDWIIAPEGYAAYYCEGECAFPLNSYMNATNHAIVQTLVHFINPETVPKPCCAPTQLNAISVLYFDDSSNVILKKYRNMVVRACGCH

mouse Gremlin = target: T2, mouse Gremlin (mouse, UniProt O70326 25-184); assay: cell-based or functional assay
T2 sequence (looked up): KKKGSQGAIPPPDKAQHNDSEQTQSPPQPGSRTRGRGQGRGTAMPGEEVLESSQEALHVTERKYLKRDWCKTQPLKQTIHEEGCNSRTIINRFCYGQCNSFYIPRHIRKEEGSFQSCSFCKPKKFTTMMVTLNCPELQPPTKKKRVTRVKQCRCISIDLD

[1] = target: B1; assay: cell-based or functional assay
[2] = target: B1; assay: SPR, Biacore T200, 25 °C; mIgG captured on anti-mouse Fc, recombinant human Gremlin 1 titrated from 5 nM; average of 5 determinations
Procedure: The affinity of anti-Gremlin mIgG for human Gremlin 1 was determined by biamolecular interaction analysis using surface plasmon resonance (SPR) technology on a Biacore T200 system, GE Healthcare Bio-Sciences AB. Anti-Gremlin mIgG was captured by an immobilised anti-mouse Fc surface and Gremlin 1 was titrated over the captured mIgG. The capture ligand (affinipure F(ab′)₂ fragment of goat anti-mouse IgG, Fc fragment specific, 115-006-071, Jackson ImmunoResearch Inc.) was immobilised at 50 μg/ml in 10 mM NaAc, pH 5.0 on flow cell 2 of a CM4 Sensor Chip via amine coupling chemistry, using 600 s activation and deactivation injections, to a level of ˜1600 response units (RU). HBS-EP+ buffer (0.01 M HEPES pH 7.4, 0.15 M NaCl, 3 mM EDTA, 0.05% Surfactant P20) was used as the running buffer with a flow rate of 10 μ1/min. A reference surface was prepared on flow cell 1 by activating and deactivating the surface as for flow cell 2 but omitting the capture ligand.
The assay buffer was HBS-EP+ plus an extra 150 mM NaCl to give a final NaCl concentration of 300 mM plus 1% CMD40. A 60 s injection of anti-Gremlin mIgG (at 5 μg/ml in running buffer) was passed over flow cells 1 and 2 to give a capture level of approximately 100 RU on the immobilised anti-mouse IgG, Fc surface. […]
The kinetic data was determined using Biacore T200 evaluation software.

IC50, Hek-Id1 reporter gene assay, restoration of BMP signalling (mouse Gremlin): 0.2 nM | IC50, Hek-Id1 reporter gene assay, restoration of BMP signalling [1]: 1.3 nM
B3: Ab7326 (format in the assay not stated) (antibody, V domains shown)
VH: QVQLVESGAEVKKPGATVKISCKVSGYTFTDYYMHWVQQAPGKGLEWMGLVDPEDGETIYAEKFQGRVTITADTSTDTAYMELSSLRSEDTAVYYCATDARGSGSYYPNHFDYWGQGTLVTVSS
VL: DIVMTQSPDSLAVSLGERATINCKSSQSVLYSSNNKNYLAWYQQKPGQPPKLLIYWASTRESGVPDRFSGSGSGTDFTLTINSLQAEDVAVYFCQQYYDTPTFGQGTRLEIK

Kd [2]: < 0.1 nM
B4: Ab7326 mouse full length IgG1 (antibody, V domains shown)
VH: QVQLVESGAEVKKPGATVKISCKVSGYTFTDYYMHWVQQAPGKGLEWMGLVDPEDGETIYAEKFQGRVTITADTSTDTAYMELSSLRSEDTAVYYCATDARGSGSYYPNHFDYWGQGTLVTVSS
VL: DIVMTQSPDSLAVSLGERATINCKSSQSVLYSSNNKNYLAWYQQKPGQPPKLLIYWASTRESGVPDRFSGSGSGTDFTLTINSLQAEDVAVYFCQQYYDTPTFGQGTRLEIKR
notes: also called anti-Gremlin mIgG; UCB Ab7326 mouse IgG1

The next lines start with the binder.

Binder: B1
IC50, Hek-Id1 reporter gene assay, geometric mean (N=2) (BMP4/7 heterodimer): 1.6 nM

B2: truncated human Gremlin-1 (E. coli expressed, refolded, N-terminal 6His-TEV tag) (ligand)
chain: MGSSHHHHHHSSGENLYFQGSAMPGEEVLESSQEALHVTERKYLKRDWCKTQPLKQTIHEEGCNSRTIINRFCYGQCNSFYIPRHIRKEEGSFQSCSFCKPKKFTTMMVTLNCPELQPPTKKKRVTRVKQCRCISIDLD
IC50, Hek-Id1 reporter gene assay, geometric mean (N=2) (BMP4/7 heterodimer): 1.7 nM
